Test results taken from patent publication US20110008345A1 (GlaxoSmithKline, published 2011).
Changes are numbered by the printed parent chain. Names and notes keep the numbering of the source. Values joined by “and” are separate entries in the source; they are usually repeats but may differ in a detail not shown here. Equal entries are not always repeated.

Experiments:
[1] = target: T1, recombinant E. coli-expressed human IL-4 (human, UniProt P05112 25-153); assay: SPR exp 2
T1 construct: made and purified at GSK; also called Interleukin-4; rhIL-4
T1 sequence: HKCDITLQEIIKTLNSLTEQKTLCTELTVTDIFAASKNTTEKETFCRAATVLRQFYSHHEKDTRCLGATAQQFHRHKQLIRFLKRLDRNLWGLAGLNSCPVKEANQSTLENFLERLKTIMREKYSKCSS

[2] = target: T2, recombinant E. coli-expressed human IL-13 (human, UniProt P35225 35-146); assay: SPR exp 2
T2 construct: made and purified at GSK; also called Interleukin-13; rhIL-13

[3] = target: T2, recombinant E. coli-expressed human …; assay: SPR stoichiometry
[4] = target: T1, recombinant E. coli-expressed human IL-4; assay: SPR stoichiometry
[5] = target: T2, recombinant E. coli-expressed human …; assay: SPR, purified
[6] = target: T1, recombinant E. coli-expressed human IL-4; assay: SPR, purified
[7] = target: T1, recombinant E. coli-expressed human IL-4; assay: cell-based or functional assay
[8] = target: T1, recombinant E. coli-expressed human IL-4; assay: ELISA, IL-4 binding to IL4Ralpha-Fc
[9] = target: T1, recombinant E. coli-expressed human IL-4; assay: SPR exp 1
[10] = target: T2, recombinant E. coli-expressed human …; assay: SPR exp 1
[11] = target: T3, recombinant E. coli-expressed cynomolgus IL-4 (cynomolgus, UniProt P79339 25-153); assay: SPR
T3 construct: also called cyno IL-4
T3 sequence (looked up): T1 sequence with E26K, V29I, F33L

[12] = target: T4, recombinant E. coli-expressed cynomolgus IL-13 (cynomolgus, UniProt Q0PW92 21-132); assay: SPR
T4 construct: also called cyno IL-13

[13] = target: T2, recombinant E. coli-expressed human …; assay: SPR
[14] = target: T2, recombinant E. coli-expressed human …; assay: SPR; remark: listed apart in the source
[15] = target: T1, recombinant E. coli-expressed human IL-4; assay: ELISA
recombinant human VEGF = target: T5, recombinant human VEGF (human, UniProt P15692-4 27-191); assay: ELISA
T5 construct: also called VEGF165; hVEGF165

recombinant human HER2 = target: T6, recombinant human HER2 (human, UniProt P04626 23-652, limits assumed); assay: ELISA
T6 construct: bought

B1: PascoL-G4S-474 (bispecific antibody, human IgG1, kappa)
heavy: not shown
light: DIVLTQSPSSLSASVGDRVTITCKASQSVDYDGDSYMNWYQQKPGKAPKLLIYAASNLESGIPSRFSGSGSGTDFTFTISSLQPEDIATYYCQQSNEDPPTFGQGTKVEIKRTVAAPSVFIFPPSDEQLKSGTASVVCLLNNFYPREAKVQWKVDNALQSGNSQESVTEQDSKDSTYSLSSTLTLSKADYEKHKVYACEVTHQGLSSPVTKSFNRGECGGGGSGVQLLESGGGLVQPGGSLRLSCAASGFTFAWYDMGWVRQAPGKGLEWVSSIDWHGEVTYYADSVKGRFTISRDNSKNTLYLQMNSLRAEDTAVYYCATAEDEPGYDYWGQGTLVTVSS
For B1, the Kd [1] was 0.063 nM and 0.052 nM, the koff [1] was 0.000135 s⁻¹ and 0.000111 s⁻¹ and the kon [1] was 2.14e+06 M⁻¹ s⁻¹ and 2.13e+06 M⁻¹ s⁻¹. For the same binder, the Kd [2] was 0.756 nM and 0.621 nM, the koff [2] was 0.000425 s⁻¹ and 0.000347 s⁻¹ and the kon [2] was 563000 M⁻¹ s⁻¹ and 559000 M⁻¹ s⁻¹. The Stoichiometry [3] was 1.8, the Stoichiometry [4] was 1.8 and the Kd [5] was 1.2 nM. It also gave a Kd [6] of 0.028 nM.

B2: PascoHL-G4S-474 (bispecific antibody, human IgG1, kappa)
heavy: not shown
light: B1 light
B2 was tested, and the Stoichiometry [3] was 3.5, the Stoichiometry [4] was 1.7 and the Kd [5] was 0.87 nM. The Kd [6] was 0.035 nM.

B3: DOM9-112-210 domain antibody (other)
VH: EVQLLESGGGLVQPGGSLRLSCAASGFTFRNFGMGWVRQAPGKGLEWVSWIISSGTETYYADSVKGRFTISRDNSKNTLYLQMNSLRAEDTAVYYCAKSLGRFDYWGQGTLVTVSS
notes: anti-IL-4 dAb
With B3 the “Mean IC50 (whole blood phospho-STAT6)” value [7] was 3.51 nM and the IC50 [8] was 36.8 nM.

B4: PascoH-G4S-474 (bispecific antibody, human IgG1, kappa)
heavy: not shown
light: DIVLTQSPSSLSASVGDRVTITCKASQSVDYDGDSYMNWYQQKPGKAPKLLIYAASNLESGIPSRFSGSGSGTDFTFTISSLQPEDIATYYCQQSNEDPPTFGQGTKVEIKRTVAAPSVFIFPPSDEQLKSGTASVVCLLNNFYPREAKVQWKVDNALQSGNSQESVTEQDSKDSTYSLSSTLTLSKADYEKHKVYACEVTHQGLSSPVTKSFNRGEC
In the case of B4, the Kd [9] is reported as 0.02 nM, the koff [9] is reported as 8.6e-05 s⁻¹ and the kon [9] is reported as 5.1e+06 M⁻¹ s⁻¹. The Kd [10] was 0.67 nM, the koff [10] was 0.00026 s⁻¹ and the kon [10] was 390000 M⁻¹ s⁻¹. The Stoichiometry [3] was 1.9, the Stoichiometry [4] was 1.8 and the Kd [5] was 0.58 nM. For the same binder, the Kd [6] was 0.036 nM.

B5: PascoH-474 (bispecific antibody, human IgG1, kappa)
heavy: not shown
light: B4 light
notes: also called BPC1000
Work on B5 yielded a Kd [11] of 0.0439 nM, a koff [11] of 8.14e-05 s⁻¹ and a kon [11] of 1.85e+06 M⁻¹ s⁻¹. For the same binder, the Kd [12] was 18.6 nM, the koff [12] was 0.0109 s⁻¹ and the kon [12] was 586000 M⁻¹ s⁻¹. It also gave a Kd [9] of 0.02 nM, a koff [9] of 9.4e-05 s⁻¹ and a kon [9] of 4.8e+06 M⁻¹ s⁻¹. The Kd [10] was 0.84 nM, the koff [10] was 0.00031 s⁻¹ and the kon [10] was 360000 M⁻¹ s⁻¹. The Stoichiometry [3] was 1.9, the Stoichiometry [4] was 1.8 and the Kd [5] was 0.71 nM. The Kd [6] was 0.037 nM.

B6: BPC1615 (bispecific antibody, human IgG1, kappa)
heavy: not shown
light: EIVLTQSPATLSLSPGERATLSCRASQNISDYLHWYQQKPGQAPRLLIYYASQSISGIPARFSGSGSGTDFTLTISSLEPEDFAVYYCQNGHSFPLTFGGGTKVEIKRTVAAPSVFIFPPSDEQLKSGTASVVCLLNNFYPREAKVQWKVDNALQSGNSQESVTEQDSKDSTYSLSSTLTLSKADYEKHKVYACEVTHQGLSSPVTKSFNRGEC
notes: also called 656H TVAAPS-210 & 656kappa
B6 gave a Kd [13] of 0.085 nM.

B7: BPC1609 (bispecific antibody, human IgG1, kappa)
heavy: not shown
light: DIVMTQSPLSLPVTPGEPASISCRSSQNIVHINGNTYLEWYLQKPGQSPRLLIYKISDRFSGVPDRFSGSGSGTDFTLKISRVEADDVGIYYCFQGSHVPWTFGQGTKLEIKRTVAAPSVFIFPPSDEQLKSGTASVVCLLNNFYPREAKVQWKVDNALQSGNSQESVTEQDSKDSTYSLSSTLTLSKADYEKHKVYACEVTHQGLSSPVTKSFNRGEC
B7 was tested, and the Kd [13] was 1.01 nM.

B8: 586H-ASTKG-210 (bispecific antibody, human IgG1, kappa)
heavy: not shown
light: B7 light
B8 gave a Kd [14] of 0.4 nM and an IC50 [8] of 27.3 nM.

B9: 586H-ELQLE-210 (bispecific antibody, human IgG1, kappa)
heavy: not shown
light: B7 light
With B9 the Kd [14] was 0.43 nM and the binding result [15] was “binds”.

B10: 586H-EPKSC-210 (bispecific antibody, human IgG1, kappa)
heavy: not shown
light: B7 light
For B10, the Kd [14] was 0.43 nM and the binding result [15] was “binds”.

B11: BPC1612 (bispecific antibody, human IgG1, kappa)
heavy: not shown
light: B7 light
Binder B11 has a Kd [13] of 0.565 nM.

B12: 586H-G4S-210 (bispecific antibody, human IgG1, kappa)
heavy: not shown
light: B7 light
B12 was tested, and the Kd [14] was 0.42 nM and the IC50 [8] was 29.9 nM.

B13: BPC1803 (bispecific antibody, human IgG1, kappa)
heavy: not shown
light: DIVMTQSPLSLPVTPGEPASISCRSSQSIVQSNGDTYLEWYLQKPGQSPQLLIYRVSNRFSGVPDRFSGSGSGTDFTLKISRVEAEDVGVYYCFQGSHVPYTFGQGTKLEIKRTVAAPSVFIFPPSDEQLKSGTASVVCLLNNFYPREAKVQWKVDNALQSGNSQESVTEQDSKDSTYSLSSTLTLSKADYEKHKVYACEVTHQGLSSPVTKSFNRGEC
notes: anti-VEGF tear lipocalin fusion; also called antiIGF1R Heavy Chain-GS-TLPC
B13: binds (recombinant human VEGF).

B14: BPC1807 (bispecific antibody, human IgG1, kappa)
heavy: not shown
light: B13 light
notes: anti-HER2 DARPin fusion; also called antiIGF1R Heavy Chain-GS-DRPN
B14: binds (recombinant human HER2).

B15: BPC1804 (bispecific antibody, human IgG1, kappa)
heavy: not shown
light: B13 light
notes: anti-VEGF tear lipocalin fusion
B15: binds (recombinant human VEGF).

B16: BPC1808 (bispecific antibody, human IgG1, kappa)
heavy: not shown
light: B13 light
notes: anti-HER2 DARPin fusion
B16: binds (recombinant human HER2).

B17: BPC1806 (bispecific antibody, human IgG1, kappa)
heavy: not shown
light: B13 light
notes: anti-HER2 Affibody fusion
B17: binds (recombinant human HER2).

B18: BPC1805 (bispecific antibody, human IgG1, kappa)
heavy: not shown
light: B13 light
notes: anti-HER2 Affibody fusion; also called antiIGF1R Heavy Chain-GS-AFFI
B18: binds (recombinant human HER2).
